± gives the standard deviation of the averaged measurements.
System: ATP
Experiment: switch fluorescence ratio, 500 uM ATP over buffer (Cy3 cluster intensity, sum of 5 cycles each) (fold (ratio)); higher = stronger signal-on switching upon ATP binding; sequences stand for … in TCGTCGGCAGCGTCAGATGTGTATAAGAGACAGTTTTTTTTTTTTTTTTTTTTTTTTT…TC
Details: aptamer strand: ATP DNA aptamer (quencher-CACCTGGGGGAGTATTGCGGAGGAAGG + anchor), 100 nM annealed; ATP concentration: 500 uM
Outline: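 Values give the fluorescence ratio for each switch-domain sequence, averaged from per-cluster ratios of summed target-cycle to summed buffer-cycle Cy3 intensity. The Cy3-labelled switching-strand clusters sat on a modified Illumina MiSeq flow-cell, were annealed to 100 nM quencher-labelled ATP aptamer, and were imaged in selection buffer, then after 15 min with 500 uM ATP at 22 °C. Five cycles ran with NaOH stripping and re-annealing between them, and clusters outside 100-1000 RFU were excluded.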
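Note: ATP exposure 15 min at 22 °C before imaging.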

TTTGCTGGTC
switch fluorescence ratio: 1.05 ± 0.025

TTTGCTTAGA
switch fluorescence ratio: 1.04 ± 0.025

TTTGCTTGGG
switch fluorescence ratio: 1.02 ± 0.033

TTTGGACATC
switch fluorescence ratio: 1.02 ± 0.027

TTTGGACGCA
switch fluorescence ratio: 1.12 ± 0.12

TTTGGACGGT
switch fluorescence ratio: 1.015 ± 0.0099

TTTGGAGCAC
switch fluorescence ratio: 1.6 ± 0.2

TTTGGAGGGG
switch fluorescence ratio: 1.03 ± 0.039

TTTGGAGTGG
switch fluorescence ratio: 0.998 ± 0.033

TTTGGATACG
switch fluorescence ratio: 1.01 ± 0.011

TTTGGATGGG
switch fluorescence ratio: 0.994 ± 0.012

TTTGGATTGT
switch fluorescence ratio: 1.006 ± 0.0074

TTTGGATTTT
switch fluorescence ratio: 1 ± 0.045

TTTGGCCCTT
switch fluorescence ratio: 1.02 ± 0.027

TTTGGCCGTT
switch fluorescence ratio: 1.2 ± 0.26

TTTGGCCTAC
switch fluorescence ratio: 1.01 ± 0.02

TTTGGCTACG
switch fluorescence ratio: 1.01 ± 0.011

TTTGGCTGAA
switch fluorescence ratio: 1.01 ± 0.019

TTTGGCTTAG
switch fluorescence ratio: 0.991 ± 0.029

TTTGGCTTGC
switch fluorescence ratio: 1.01 ± 0.042

TTTGGCTTTC
switch fluorescence ratio: 1.06 ± 0.016

TTTGGGAACT
switch fluorescence ratio: 1 ± 0.021

TTTGGGACGC
switch fluorescence ratio: 1.05 ± 0.088

TTTGGGAGTG
switch fluorescence ratio: 0.965 ± 0.037

TTTGGGATGC
switch fluorescence ratio: 1.07 ± 0.095

TTTGGGATGT
switch fluorescence ratio: 1.02 ± 0.073

TTTGGGCCGC
switch fluorescence ratio: 1.06 ± 0.05

TTTGGGCGGT
switch fluorescence ratio: 1.04 ± 0.12

TTTGGGCTCC
switch fluorescence ratio: 0.98 ± 0.018

TTTGGGGCTA
switch fluorescence ratio: 1.05 ± 0.15

TTTGGGGGAA
switch fluorescence ratio: 0.994 ± 0.046

TTTGGGGGG
switch fluorescence ratio: 1.05 ± 0.046

TTTGGGGTAG
switch fluorescence ratio: 0.977 ± 0.015

TTTGGGGTCA
switch fluorescence ratio: 1 ± 0.016

TTTGGGGTG
switch fluorescence ratio: 1.04 ± 0.022

TTTGGGTAAA
switch fluorescence ratio: 1.02 ± 0.032

TTTGGGTATC
switch fluorescence ratio: 0.982 ± 0.041

TTTGGGTGCG
switch fluorescence ratio: 0.998 ± 0.04

TTTGGTAGCT
switch fluorescence ratio: 0.9596 ± 0.0037

TTTGGTATGA
switch fluorescence ratio: 0.9736 ± 0.0021

TTTGGTATGG
switch fluorescence ratio: 0.997 ± 0.015

TTTGGTATGT
switch fluorescence ratio: 1.03 ± 0.057

TTTGGTATTT
switch fluorescence ratio: 0.984 ± 0.025

TTTGGTCGTG
switch fluorescence ratio: 1.042 ± 0.0036

TTTGGTGACT
switch fluorescence ratio: 1.018 ± 0.0063

TTTGGTGATT
switch fluorescence ratio: 0.982 ± 0.025

TTTGGTGCGG
switch fluorescence ratio: 0.985 ± 0.01

TTTGGTGGCA
switch fluorescence ratio: 0.9992 ± 0.0099

TTTGGTGGGA
switch fluorescence ratio: 0.972 ± 0.026

TTTGGTGGGT
switch fluorescence ratio: 0.975 ± 0.012

TTTGGTGGTT
switch fluorescence ratio: 1.03 ± 0.059

TTTGGTGTTG
switch fluorescence ratio: 0.987 ± 0.022

TTTGGTTCTC
switch fluorescence ratio: 0.977 ± 0.012

TTTGGTTGT
switch fluorescence ratio: 0.972 ± 0.013

TTTGGTTGTG
switch fluorescence ratio: 0.986 ± 0.018

TTTGGTTTAT
switch fluorescence ratio: 0.982 ± 0.04

TTTGGTTTCC
switch fluorescence ratio: 1.01 ± 0.053

TTTGGTTTGC
switch fluorescence ratio: 0.992 ± 0.0039

TTTGTAAATT
switch fluorescence ratio: 1 ± 0.018

TTTGTAACAC
switch fluorescence ratio: 1.25 ± 0.36

TTTGTAATGG
switch fluorescence ratio: 1.08 ± 0.14

TTTGTAGAGC
switch fluorescence ratio: 1.05 ± 0.063

TTTGTAGCAC
switch fluorescence ratio: 1.31 ± 0.072

TTTGTAGGCA
switch fluorescence ratio: 0.989 ± 0.011

TTTGTAGTTT
switch fluorescence ratio: 1.03 ± 0.055

TTTGTATGAG
switch fluorescence ratio: 1.03 ± 0.025

TTTGTATGGT
switch fluorescence ratio: 0.976 ± 0.011

TTTGTATTAG
switch fluorescence ratio: 1 ± 0.028

TTTGTATTCG
switch fluorescence ratio: 1.004 ± 0.0064

TTTGTCAAGG
switch fluorescence ratio: 1.02 ± 0.015

TTTGTCAGAT
switch fluorescence ratio: 0.98 ± 0.013

TTTGTCAGGT
switch fluorescence ratio: 0.9692 ± 0.0021

TTTGTCCCGT
switch fluorescence ratio: 0.98 ± 0.026

TTTGTCGCTG
switch fluorescence ratio: 1.01 ± 0.038

TTTGTCTGAC
switch fluorescence ratio: 0.9946 ± 0.0028

TTTGTCTTGG
switch fluorescence ratio: 0.972 ± 0.031

From the supplement of paper PMC10126150
